The source of these data is paper PMC9245377.

Among the targets are collagen V; fibrinogen; α5β1 integrin (UniProt P08648).
Common to all, as to assay: ELISA; binding of recombinant InvL to α5β1 integrin, collagen V, fibrinogen, mucin or BSA (negative control); two biological replicates; protocol based on ref. 50, details in the supplemental material
For orientation: ELISA stands for enzyme-linked immunosorbent assay.

UniProt P08648, sequence (P08648 42-1049, chain 1 of 2): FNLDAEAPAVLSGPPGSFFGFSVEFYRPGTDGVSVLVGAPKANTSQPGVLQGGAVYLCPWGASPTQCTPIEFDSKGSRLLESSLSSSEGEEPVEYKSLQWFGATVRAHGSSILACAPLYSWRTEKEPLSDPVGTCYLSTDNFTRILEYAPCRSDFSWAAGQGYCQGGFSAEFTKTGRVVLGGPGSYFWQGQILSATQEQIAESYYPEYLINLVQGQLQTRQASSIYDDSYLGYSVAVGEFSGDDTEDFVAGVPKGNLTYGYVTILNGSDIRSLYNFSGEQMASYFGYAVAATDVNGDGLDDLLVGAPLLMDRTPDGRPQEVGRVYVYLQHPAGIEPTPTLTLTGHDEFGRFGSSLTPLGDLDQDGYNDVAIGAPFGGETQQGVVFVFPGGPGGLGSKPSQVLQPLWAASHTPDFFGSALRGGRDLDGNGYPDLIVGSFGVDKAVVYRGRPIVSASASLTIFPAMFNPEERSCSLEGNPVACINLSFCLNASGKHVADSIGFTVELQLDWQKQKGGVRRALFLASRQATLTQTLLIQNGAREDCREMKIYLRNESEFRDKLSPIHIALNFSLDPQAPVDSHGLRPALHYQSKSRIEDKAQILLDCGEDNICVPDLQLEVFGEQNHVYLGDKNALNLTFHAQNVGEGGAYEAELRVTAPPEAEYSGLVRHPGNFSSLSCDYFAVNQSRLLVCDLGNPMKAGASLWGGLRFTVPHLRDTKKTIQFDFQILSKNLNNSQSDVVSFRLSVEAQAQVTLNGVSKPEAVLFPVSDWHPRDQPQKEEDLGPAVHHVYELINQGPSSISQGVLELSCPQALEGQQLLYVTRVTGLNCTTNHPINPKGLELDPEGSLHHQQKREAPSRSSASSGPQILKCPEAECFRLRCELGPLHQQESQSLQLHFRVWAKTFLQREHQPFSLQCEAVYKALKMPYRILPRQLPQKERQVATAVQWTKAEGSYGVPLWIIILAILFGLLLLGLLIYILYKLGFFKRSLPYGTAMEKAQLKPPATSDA
UniProt P08648, sequence (P05556 21-798, chain 2 of 2, further chain): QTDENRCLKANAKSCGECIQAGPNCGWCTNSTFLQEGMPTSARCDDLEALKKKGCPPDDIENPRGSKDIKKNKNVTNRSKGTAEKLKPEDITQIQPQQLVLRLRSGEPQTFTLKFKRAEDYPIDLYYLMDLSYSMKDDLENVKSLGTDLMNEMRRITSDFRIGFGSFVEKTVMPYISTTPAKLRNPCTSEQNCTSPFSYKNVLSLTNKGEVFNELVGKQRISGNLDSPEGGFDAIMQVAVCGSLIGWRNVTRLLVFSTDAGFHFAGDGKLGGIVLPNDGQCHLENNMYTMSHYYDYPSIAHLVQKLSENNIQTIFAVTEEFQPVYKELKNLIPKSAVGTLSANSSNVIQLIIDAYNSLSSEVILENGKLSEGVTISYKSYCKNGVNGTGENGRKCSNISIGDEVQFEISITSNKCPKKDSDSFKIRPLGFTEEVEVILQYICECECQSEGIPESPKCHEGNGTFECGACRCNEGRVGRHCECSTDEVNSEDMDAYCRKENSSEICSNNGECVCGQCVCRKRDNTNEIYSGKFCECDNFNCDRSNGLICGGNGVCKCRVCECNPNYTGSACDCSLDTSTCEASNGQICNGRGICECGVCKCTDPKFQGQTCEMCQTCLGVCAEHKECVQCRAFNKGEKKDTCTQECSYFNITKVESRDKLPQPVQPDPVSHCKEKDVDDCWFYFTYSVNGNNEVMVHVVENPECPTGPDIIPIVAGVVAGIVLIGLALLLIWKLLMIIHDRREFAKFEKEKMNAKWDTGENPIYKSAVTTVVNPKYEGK

Turning to “soluble recombinant InvL lacking the N-terminal signal sequence, with a C-terminal His10 tag (natural protein)”, the Kd with collagen V worked out at 15000 nM; with fibrinogen it was 0.19 nM; with α5β1 integrin, 0.38 nM.

In general, Kd refers to the equilibrium constant for the complex coming apart.
